Experiment [1] has as its target human TIM-3 protein on human PBMC (human) (UniProt Q8TDQ0). Nature of the experiment: cell-based or functional assay.
The target of experiment [2] is human TIM-3 protein with hFc tag (hTIM-3-hFc protein) (human) (UniProt Q8TDQ0). Nature of the experiment: ELISA, coated hTIM-3-hFc; antibody 0.0667 nM.
Experiment [3] deals with monkey TIM-3 protein with hFc tag (cTIM-3-hFc protein) (monkey; human). Nature of the experiment: ELISA, coated cTIM-3-hFc; antibody 66.667 nM. (In general: ELISA stands for enzyme-linked immunosorbent assay.)
Chain of monkey TIM-3 protein with hFc tag (cTIM-3-hFc protein) (monkey; human) (chain, as listed by the source): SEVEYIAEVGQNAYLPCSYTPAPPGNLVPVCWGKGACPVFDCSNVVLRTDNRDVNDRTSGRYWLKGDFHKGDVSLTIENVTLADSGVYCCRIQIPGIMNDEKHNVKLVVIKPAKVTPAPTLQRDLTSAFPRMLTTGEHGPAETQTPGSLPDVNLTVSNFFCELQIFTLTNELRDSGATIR
Experiment [4] deals with human TIM-3 protein with hFc tag (hTIM-3-hFc protein) (human) (UniProt Q8TDQ0). The experiment in a line: ELISA, coated hTIM-3-hFc; antibody 6.6667 nM.
Experiment [5] has as its target murine TIM-3 protein with hFc tag (mTIM-3-hFc protein) (mouse; human) (UniProt Q8VIM0). Nature of the experiment: ELISA, coated mTIM-3-hFc; antibody 6.6667 nM.
For experiment [6] the target is unchanged. Nature of the experiment: ELISA, coated mTIM-3-hFc; antibody 0.6667 nM.
For experiment [7], the target named is human TIM-3 protein with hFc tag (hTIM-3-hFc protein) (human) (UniProt Q8TDQ0). Nature of the experiment: ELISA, hTIM-3-hFc coated at 1 ug/ml; antibody 13.34 nM.
Experiment [8] shares this target. Nature of the experiment: ELISA, hTIM-3-hFc coated at 1 ug/ml; antibody 0.11 nM.
The target in experiment [9] is human TIM-3, full length, on cells (human) (UniProt Q8TDQ0). The experiment in a line: FACS, CHOK1-hTIM-3 cells; antibody 200 nM.
Chain of human TIM-3, full length, on cells (human) (Q8TDQ0 22-301 limits assumed): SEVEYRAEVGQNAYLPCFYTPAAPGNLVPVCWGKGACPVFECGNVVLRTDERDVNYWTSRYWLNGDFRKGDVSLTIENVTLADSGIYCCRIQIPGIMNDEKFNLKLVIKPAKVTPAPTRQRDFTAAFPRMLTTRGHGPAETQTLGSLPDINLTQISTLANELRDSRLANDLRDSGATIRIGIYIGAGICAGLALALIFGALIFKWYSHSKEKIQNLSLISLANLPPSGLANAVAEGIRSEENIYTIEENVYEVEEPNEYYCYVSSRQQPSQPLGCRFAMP
Experiment [10] addresses monkey TIM-3 protein with hFc tag (cTIM-3-hFc protein) (monkey; human). The experiment in a line: ELISA, coated cTIM-3-hFc; antibody 0.6667 nM.
Experiment [11] addresses murine TIM-3 protein with hFc tag (mTIM-3-hFc protein) (mouse; human) (UniProt Q8VIM0). Nature of the experiment: ELISA, coated mTIM-3-hFc; antibody 0 nM (blank).
For experiment [12] the target is unchanged. The experiment in a line: ELISA, coated mTIM-3-hFc; antibody 66.667 nM.
Experiment [13] shares this target. Nature of the experiment: ELISA, coated mTIM-3-hFc; antibody 0.0667 nM.
For experiment [14], the target named is human TIM-3 protein with hFc tag (hTIM-3-hFc protein) (human) (UniProt Q8TDQ0). The experiment in a line: ELISA, hTIM-3-hFc coated at 1 ug/ml; antibody 0.53 nM.
Experiment [15] has as its target monkey TIM-3 protein with hFc tag (cTIM-3-hFc protein) (monkey; human). Nature of the experiment: ELISA, coated cTIM-3-hFc; antibody 0.0007 nM.
Experiment [16] has as its target human TIM-3, full length, on cells (human) (UniProt Q8TDQ0). The experiment in a line: FACS, CHOK1-hTIM-3 cells; antibody 1.6 nM.
Experiment [17] shares this target. The experiment in a line: FACS, CHOK1-hTIM-3 cells; antibody 0 nM (blank). (In flow cytometry, cells or beads pass a laser one at a time.)
The target of experiment [18] is human TIM-3 protein with hFc tag (hTIM-3-hFc protein) (human) (UniProt Q8TDQ0). Nature of the experiment: ELISA, coated hTIM-3-hFc; antibody 0.6667 nM.
Experiment [19] shares this target. Nature of the experiment: ELISA, hTIM-3-hFc coated at 1 ug/ml; antibody 0 nM (blank).
For experiment [20], the target named is murine TIM-3 protein with hFc tag (mTIM-3-hFc protein) (mouse; human) (UniProt Q8VIM0). The experiment in a line: ELISA, coated mTIM-3-hFc; antibody 0.0067 nM.
Chain of murine TIM-3 protein with hFc tag (mTIM-3-hFc protein) (mouse; human) (Q8VIM0 other isoform, or with tags, fused parts or gaps): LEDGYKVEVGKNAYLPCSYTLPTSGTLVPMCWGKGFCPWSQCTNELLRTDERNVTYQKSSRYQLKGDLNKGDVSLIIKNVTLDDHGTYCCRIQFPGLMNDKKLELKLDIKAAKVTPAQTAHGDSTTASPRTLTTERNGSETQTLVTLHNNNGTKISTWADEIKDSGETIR
Experiment [21] concerns the target human TIM-3 protein with hFc tag (hTIM-3-hFc protein) (human) (UniProt Q8TDQ0). The experiment in a line: ELISA, coated hTIM-3-hFc; antibody 0.0007 nM.
The target of experiment [22] is human TIM-3, full length, on cells (human) (UniProt Q8TDQ0). The experiment in a line: FACS, CHOK1-hTIM-3 cells; antibody 0.064 nM.
Experiment [23] has as its target human TIM-3 protein with hFc tag (hTIM-3-hFc protein) (human) (UniProt Q8TDQ0). Nature of the experiment: ELISA, hTIM-3-hFc coated at 1 ug/ml; antibody 2.67 nM.
Experiment [24] deals with murine TIM-3 protein with hFc tag (mTIM-3-hFc protein) (mouse; human) (UniProt Q8VIM0). Nature of the experiment: ELISA, coated mTIM-3-hFc; antibody 0.0001 nM.
The target of experiment [25] is monkey TIM-3 protein with hFc tag (cTIM-3-hFc protein) (monkey; human). The experiment in a line: ELISA, coated cTIM-3-hFc; antibody 0.0067 nM.
For experiment [26] the target is unchanged. The experiment in a line: ELISA, coated cTIM-3-hFc; antibody 0.0667 nM.
The target in experiment [27] is human TIM-3, full length, on cells (human) (UniProt Q8TDQ0). The experiment in a line: FACS, CHOK1-hTIM-3 cells; antibody 0.013 nM.
Experiment [28] deals with human TIM-3 protein with hFc tag (hTIM-3-hFc protein) (human) (UniProt Q8TDQ0). Nature of the experiment: ELISA, hTIM-3-hFc coated at 1 ug/ml; antibody 66.7 nM.
Experiment [29] has as its target human TIM-3, full length, on cells (human) (UniProt Q8TDQ0). The experiment in a line: FACS, CHOK1-hTIM-3 cells; antibody 8 nM.
For experiment [30] the target is unchanged. Nature of the experiment: FACS, CHOK1-hTIM-3 cells; antibody 40 nM.
Experiment [31] concerns the target monkey TIM-3 protein with hFc tag (cTIM-3-hFc protein) (monkey; human). Nature of the experiment: ELISA, coated cTIM-3-hFc; antibody 0.0001 nM.
The target of experiment [32] is human TIM-3, full length, on cells (human) (UniProt Q8TDQ0). Nature of the experiment: FACS, CHOK1-hTIM-3 cells; antibody 0.32 nM.
Experiment [33] has as its target human TIM-3 protein with hFc tag (hTIM-3-hFc protein) (human) (UniProt Q8TDQ0). The experiment in a line: ELISA, coated hTIM-3-hFc; antibody 0.0001 nM.
Experiment [34] shares this target. Nature of the experiment: ELISA, hTIM-3-hFc coated at 1 ug/ml; antibody 0.0043 nM.
Experiment [35] shares this target. Nature of the experiment: ELISA, coated hTIM-3-hFc; antibody 0.0067 nM.
Experiment [36] deals with monkey TIM-3 protein with hFc tag (cTIM-3-hFc protein) (monkey; human). The experiment in a line: ELISA, coated cTIM-3-hFc; antibody 6.6667 nM.
Experiment [37] shares this target. Nature of the experiment: ELISA, coated cTIM-3-hFc; antibody 0 nM (blank).
In experiment [38] the target is human TIM-3 protein with hFc tag (hTIM-3-hFc protein) (human) (UniProt Q8TDQ0). The experiment in a line: ELISA, hTIM-3-hFc coated at 1 ug/ml; antibody 0.021 nM.
Experiment [39] has the same target. Nature of the experiment: ELISA, coated hTIM-3-hFc; antibody 0 nM (blank).
The target in experiment [40] is murine TIM-3 protein with hFc tag (mTIM-3-hFc protein) (mouse; human) (UniProt Q8VIM0). Nature of the experiment: ELISA, coated mTIM-3-hFc; antibody 0.0007 nM.
The target in experiment [41] is human TIM-3 protein with hFc tag (hTIM-3-hFc protein) (human) (UniProt Q8TDQ0). Nature of the experiment: ELISA, coated hTIM-3-hFc; antibody 66.667 nM.
The target of experiment [42] is monkey TIM-3 on CHOK1 stable cell line (CHOK1-cTIM-3) (monkey). The experiment in a line: FACS, CHOK1-cTIM-3 cells, 0.32 nM antibody.
Chain of monkey TIM-3 on CHOK1 stable cell line (CHOK1-cTIM-3) (monkey) (chain, as listed by the source limits assumed): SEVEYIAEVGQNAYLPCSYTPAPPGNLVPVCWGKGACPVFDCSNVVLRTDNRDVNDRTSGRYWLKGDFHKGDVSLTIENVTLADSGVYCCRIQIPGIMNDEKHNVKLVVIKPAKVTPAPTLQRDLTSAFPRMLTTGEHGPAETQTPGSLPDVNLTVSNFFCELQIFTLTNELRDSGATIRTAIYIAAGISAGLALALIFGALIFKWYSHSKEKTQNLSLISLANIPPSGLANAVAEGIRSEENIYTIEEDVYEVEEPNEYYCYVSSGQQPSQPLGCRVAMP
The target is the same in experiment [43]. Nature of the experiment: FACS, CHOK1-cTIM-3 cells, 0 nM antibody.
For experiment [44], the target named is TIM-3 protein on human peripheral blood mononuclear lymphocytes (PBMC) (human) (UniProt Q8TDQ0). The experiment in a line: cell-based or functional assay.
Chain of TIM-3 protein on human peripheral blood mononuclear lymphocytes (PBMC) (human) (Q8TDQ0 22-301 limits assumed): as the sequence (Q8TDQ0 22-301 limits assumed) above
The target of experiment [45] is monkey TIM-3 on CHOK1 stable cell line (CHOK1-cTIM-3) (monkey). The experiment in a line: FACS, CHOK1-cTIM-3 cells, 0.013 nM antibody.
Experiment [46] shares this target. The experiment in a line: FACS, CHOK1-cTIM-3 cells, 0.064 nM antibody.
For experiment [47] the target is unchanged. The experiment in a line: FACS, CHOK1-cTIM-3 cells, 1.6 nM antibody.
The target is the same in experiment [48]. The experiment in a line: FACS, CHOK1-cTIM-3 cells, 40 nM antibody.
Experiment [49] has the same target. The experiment in a line: FACS, CHOK1-cTIM-3 cells, 8 nM antibody.
Experiment [50] has the same target. The experiment in a line: FACS, CHOK1-cTIM-3 cells, 200 nM antibody.

Where “and” joins values, the source holds several entries; their conditions need not be identical. Identical values can stand only once.

Chain of human TIM-3 protein with hFc tag (hTIM-3-hFc protein) (human) (Q8TDQ0 22-200): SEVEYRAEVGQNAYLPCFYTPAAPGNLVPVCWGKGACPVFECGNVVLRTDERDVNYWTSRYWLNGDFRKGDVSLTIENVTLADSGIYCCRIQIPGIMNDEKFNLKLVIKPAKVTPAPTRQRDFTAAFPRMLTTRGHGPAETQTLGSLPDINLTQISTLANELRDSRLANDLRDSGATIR
Chain of human TIM-3 protein on human PBMC (human) (Q8TDQ0 22-301 limits assumed): as the sequence (Q8TDQ0 22-301 limits assumed) above

As for hIgG control (human IgG) (antibody), in experiment [1], the IFN-γ production, lymphocyte activation assay (donor Y), negative control IgG 0.1 µg/ml, N = 1 was 2100 pg/mL; the IFN-γ production, lymphocyte activation assay (donor Y), negative control IgG 0.1 µg/ml, N = 2 stood at 2020 pg/mL; the IFN-γ production, lymphocyte activation assay (donor Y), negative control IgG 1 µg/ml, N = 1 worked out at 2190 pg/mL; the IFN-γ production, lymphocyte activation assay (donor Y), negative control IgG 1 µg/ml, N = 2 stood at 1770 pg/mL. For the same substance, in experiment [1], the IFN-γ production, lymphocyte activation assay (donor Y), negative control IgG 10 µg/ml, N = 1 stood at 1930 pg/mL; the IFN-γ production, lymphocyte activation assay (donor Y), negative control IgG 10 µg/ml, N = 2 is 1980 pg/mL; the IFN-γ production, lymphocyte activation assay (donor Y), negative control IgG, concentration head printed '0' (fifth), N = 1 came to 2000 pg/mL; the IFN-γ production, lymphocyte activation assay (donor Y), negative control IgG, concentration head printed '0' (fifth), N = 2 was 2070 pg/mL. In addition, in [1], the IFN-γ production, lymphocyte activation assay (donor Y), negative control IgG, concentration head printed '0' (fourth), N = 1 turned out to be 1990 pg/mL and the IFN-γ production, lymphocyte activation assay (donor Y), negative control IgG, concentration head printed '0' (fourth), N = 2 was 2160 pg/mL.
Take rat IgG (negative control antibody): the OD450 in experiment [2] amounted to 0.12; in [3], 0.68; in [4], 0.13; in [5], 0.65; in experiment [6] it was 0.66; in [10] it was 0.55. The OD450 is 0.6 in experiment [11]; 0.75 in experiment [12]; 0.64 in experiment [13]; 0.55 in experiment [15]; 0.13 in [18]; 0.62 in [20]. For the same substance, the OD450 in experiment [21] turned out to be 0.12; in [24] it was 0.63; in [25], 0.57; in experiment [26], 0.54; in [31], 0.54; in experiment [33], 0.11. Moreover, the OD450 was 0.12 in experiment [35]; 0.58 in experiment [36]; 0.55 in [37]; 0.11 in [39]; 0.67 in experiment [40]; 0.22 in [41]. The OD450 nm in [7] is 0.63; in [8], 0.6 and 0.59; in experiment [14] it was 0.63 and 0.65; in [19], 0.61 and 0.59; in experiment [23], 0.69 and 0.58; in experiment [28], 0.72 and 0.7. Also, the OD450 nm in [34] is 0.63 and 0.59; in [38] it was 0.55 and 0.58. The Mean fluorescence intensity in [9] was 3.8; in [16], 3; in experiment [17], 3; in experiment [22], 3; in experiment [27], 3; in experiment [29] it was 3.1. For the same substance, the values for the Mean fluorescence intensity in experiment [30] and in [32] were 3.3 and 3, respectively.
Turning to “commercially available anti-TIM-3 antibody (R&D system, MAB2365)”, the OD450 nm is 3.45 and 3.42 in experiment [7]; 3.23 and 3.27 in [8]; 3.52 and 3.38 in [14]; 0.6 and 0.59 in experiment [19]; 3.42 and 3.32 in experiment [23]; 3.48 and 3.44 in experiment [28]. For the same substance, the OD450 nm in experiment [34] is 0.92 and 0.86; in [38], 1.78 and 1.75.
In turn, rat IgG control (antibody) showed a Mean fluorescence intensity in experiment [42] of 3.5. For the same substance, the Mean fluorescence intensity in experiment [43] was determined as 3.2. In [44], this substance had an IFN production; antibody 0.001 µg/ml (4th head as printed), N = 1 of 738 pg/mL; an IFN production; antibody 0.001 µg/ml (4th head as printed), N = 2 of 786 pg/mL; an IFN production; antibody 0.001 µg/ml (5th head as printed), N = 1 of 727 pg/mL; an IFN production; antibody 0.001 µg/ml (5th head as printed), N = 2 of 714 pg/mL. Besides, in [44], the IFN production; antibody 0.1 µg/ml, N = 1 came out at 718 pg/mL; the IFN production; antibody 0.1 µg/ml, N = 2 came to 664 pg/mL; the IFN production; antibody 1 µg/ml, N = 1 stood at 694 pg/mL; the IFN production; antibody 1 µg/ml, N = 2 was found to be 574 pg/mL. In experiment [44], this substance came in with an IFN production; antibody 10 µg/ml, N = 1 of 620 pg/mL and an IFN production; antibody 10 µg/ml, N = 2 of 582 pg/mL. In experiment [45], this substance displayed a Mean fluorescence intensity of 3.3. The same substance returned a Mean fluorescence intensity in experiment [46] of 3.4. The Mean fluorescence intensity in experiment [47] was determined as 3.6. In addition, the Mean fluorescence intensity in experiment [48] was determined as 3.7. The substance further returned a Mean fluorescence intensity in [49] of 3.8. Moreover, the Mean fluorescence intensity in experiment [50] was determined as 4.8.

The record behind these values is patent US20220033501A1.
